Experimental findings from the nanobody polyreactivity screen of Harvey et al. (2022) are described below.

The nature of the series: yeast display, Sf9 membrane polyspecificity reagent, FACS + sequencing; frameworks hold sequencing errors. In short, it runs like this: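 A synthetic nanobody library was expressed on Saccharomyces cerevisiae BJ5465 by galactose induction for 36–48 hours. The library was stained for 1 hour at 4 °C with 10% biotinylated, detergent-solubilized Sf9 membrane reagent and enriched with streptavidin microbeads before FACS. Low and high (top ~1%) gates were set on anti-HA fluorescence for expression and streptavidin fluorescence for reagent binding, and each polyreactivity label reflects the gate of origin.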
For “QVQLVESGGGLVQAGGSLRLSCAASGSTFDKYAMGWYRQAPGKDRELVAAITWGGGSTYYADSVKGRFTISRDNAKNTVYLQMNSLKPEDTAVYYCAAEQGSSVLYDSWGQGTQVTVSS”, the “polyreactivity (PSR sort gate)” value was “low polyreactivity”.
On to “QVQLVESGGGLVQAGGSLRLSCAASGSTFDNYVMGWYRQAPGKERELVAAISRRGGNTYYADSVKGRFTISRDNAKNTVYLQMNSLKPEDTAVYYCAADPYGYGHWGDYWGQGTQVTVSS”, for which the “polyreactivity (PSR sort gate)” value is given as “low polyreactivity”.
For “QVQLVESGGGLVQAGGSLRLSCAASGSTFDPNVMGWYRQAPGKERELVAGITWRGGRTYYADSVKGRFTISRDNAKNTVYLQMNSLKPEDTAVYYCNAEDWTRKYDYWGQGTQVTVSS” the value was “high polyreactivity”; for “QVQLVESGGGLVQAGGSLRLSCAASGSTFDPYGMGWYRQAPGKERELVAAITSSGRTNYADSVKGRFTISRDNAKNTVYFQMNSLKPEDTAVYYCATRKERYFYRCYEYWGQGTQVTVSS”, “low polyreactivity”.
The result for “QVQLVESGGGLVQAGGSLRLSCAASGSTFDQYGMGWYRQAPGKERELVAAITSVGGTNYADSVKGRFTISRDNAKNTVYLKMNSLKPEDTAVYYCAAGSVSQYDSWGQGTQVTVSS” reads “low polyreactivity”.
For “QVQLVESGGGLVQAGGSLRLSCAASGSTFDRYTMGWYRQAPGKERELVAAISISGGSTYYADSVKGRFTISRDNAKNTVYLQMNSLKPEDTEVYYCAARLDTVTDYYYWGQGTQVTVSS” the value was “low polyreactivity”.
On to “QVQLVESGGGLVQAGGSLRLSCAASGSTFDSNAMGWYRQAPGKERELVAASDWSGGSTYYADSVKGRFTISRDNAKNTVYLQMNSLNPEDTGVYYGDADDSSINYGDFDYWGQGTQVTVTS”, for which the “polyreactivity (PSR sort gate)” value was “low polyreactivity”.
For “QVQLVESGGGLVQAGGSLRLSCAASGSTFDSNDMGWSRQAPGKERELVAAITWSGGSTYYADSVKGRFTISRDNAKNTVYLQMNSLKPEDTAVYYCAATSGRAFKYDYWGQGTQVTVSS” the value was “high polyreactivity”; for “QVQLVESGGGLVQAGGSLRLSCAASGSTFDSNVIGWYRQAPGKERELVAAITWSGGSTYYADSVKGRFTISRDNAKNTVYLQMNSLKPEDTAVYYCAARHYPRYGNRRMYYWGQGTQVTVSS”, “high polyreactivity”.
For “QVQLVESGGGLVQAGGSLRLSCAASGSTFDSNVMGCYRQAPGKERELVAVINGSGSNTYYADSVKGRFTISRDNAKNTVYLQMNSLKPEDTAVYYCAARVYVSRSKRLNYWGQGTQVTVSS” the value was “high polyreactivity”; for “QVQLVESGGGLVQAGGSLRLSCAASGSTFDSYAMGWSRQAPGKERELVAAISYSGGSTYYADSVKGRFTISRDNAKNTVYLQMNRLKPEDTAVYYCAASSYNHKRYPSPYDYWGQGTQVTVSS”, “high polyreactivity”; for “QVQLVESGGGLVQAGGSLRLSCAASGSTFDSYAMGWYRQAPGKERELVAAISYNGSSTYYADSVKGRFTISRDNAKNTVYLQMNSLKPEDTAVYYCAAAPGFSAGHHDYWGQGTQVTVSS”, “low polyreactivity”.
The result for “QVQLVESGGGLVQAGGSLRLSCAASGSTFDSYAMGWYRQAPGKERELVASITSNDGSTSYADSVKGRFTISRDNAKNTVYLQMNSLKPEDTAVYYCATTFQYYWFSLYDYWGQGTQVTVSS” reads “low polyreactivity”; that for “QVQLVESGGGLVQAGGSLRLSCAASGSTFDSYGMGWYRLAPGKERELVAPSTSRGASTNYADSVKGRFTISRDTAKNTVYLQMTSLKPEDTAVYYCNREVPWWLYKYDGHDYWGQATQVTVSS”, “low polyreactivity”.
For the sequence “QVQLVESGGGLVQAGGSLRLSCAASGSTFDTNAMGWYRQAPGKERELVATITSIGGSTYADSVKGRFTISRDNAKNTVYLQMNSLKPEDTAVYYCATDYVEIDYDYDYWGQGTQVTVSS”, the “polyreactivity (PSR sort gate)” value is “low polyreactivity”.
The result for “QVQLVESGGGLVQAGGSLRLSCAASGSTFDVNAMGWYRPAPGKERELVAAISWNSGSTYYADSVKGRFTISRDNAKNTVYLQLNSLKPEDTAVYYCAATYGTGRRSKYGYWGQGTQVTVSS” reads “high polyreactivity”; that for “QVQLVESGGGLVQAGGSLRLSCAASGSTFDYNAMGCYRQAPRKERELDAVIRSGGTTYYADSVKGRFTISRVNAKNTVYLQMNSLKPEDTAVYYCAASFQRRAGSYGGSRRYGYLGQGTQVTVSS”, “high polyreactivity”; that for “QVQLVESGGGLVQAGGSLRLSCAASGSTFDYNAMGWYRQAPGKERELVAAISRGGNTDYADSVKGRFTISRDNAKNSVYLQMNSLKPEDTAVYYCAADALLEWFDVAYFAYEYWGQGTQVTVSS”, “low polyreactivity”.
As for “QVQLVESGGGLVQAGGSLRLSCAASGSTFDYNTMGWYRQAPGKERELVAAISWRGVSTYYADSVKGRFTISRDNAKNTVYLQMNSLKTEDTAVYYCNAVHHYPEHIGGGYWGQGTQVTVSS”, the “polyreactivity (PSR sort gate)” value is “low polyreactivity”.
Regarding “QVQLVESGGGLVQAGGSLRLSCAASGSTFDYNTMGWYRQAPGKERELVAGIRSSGARTYYADSVKGRFTISRDNAKNTVYLQMNSLKPEDTAVYYCAKTDGFYRGYGYWGQGTQVTVSS”, the “polyreactivity (PSR sort gate)” value is reported as “low polyreactivity”.
The result for “QVQLVESGGGLVQAGGSLRLSCAASGSTFDYYAMGWYREAPGKERELVAGITSDGSTYYADSVKGRFTISRDNAKNTVYLQMNSLKPEDTAVYYCNKAPYHWPYEYWGQGTQVTVSS” reads “low polyreactivity”.
The result for “QVQLVESGGGLVQAGGSLRLSCAASGSTFDYYAMGWYRQAPGKERELVAAISSGGSTNYADSVKGRFTISRDNAKNTVYLQMNSLKPEDTAVYYCAAVALWDYKFFYYLLYDYWGQGTQVTVSS” reads “low polyreactivity”.
As for “QVQLVESGGGLVQAGGSLRLSCAASGSTFDYYAMGWYRQAPGKERELVAAISSSGSSTYYADSVKGRFTISRDNAKNTVYLQMNSLKPEDTAVYYCNALSNVPYDYWGQGTQVTVSS”, the “polyreactivity (PSR sort gate)” value was “low polyreactivity”.
For “QVQLVESGGGLVQAGGSLRLSCAASGSTFDYYAMGWYRQAPVKERELVAAITGTGGSTYYADSVKGRFTISRDNAKNTVYLQINRLKPEDTAVYYCAADTYLGWSYYWGQGTQVTVSS” the value was “high polyreactivity”; for “QVQLVESGGGLVQAGGSLRLSCAASGSTFDYYTMGWYRQAPGKERELVAAISRSGGSTRYADSVKGRFTISRDNAKNTVYLQMNSLKPEYTAVYYCAAKLWRYYHYDYWGQGTQVTVSS”, “low polyreactivity”; for “QVQLVESGGGLVQAGGSLRLSCAASGSTFDYYVMGWYRQAPGKERELVAAISLSGGSTYYADSVKGRFTISRDNAKNTVYLQMNSLKPEHTAVYYCAAQTKPASRVTYYWYYYWGQGTQVTVSS”, “high polyreactivity”.
With “QVQLVESGGGLVQAGGSLRLSCAASGSTFEAYAMGWYRQAPGKERELVAAITRGSTYYADSVKGRFTISRDNAKNTVYLQMNSLKPEDTAVYYCNVDYSYNSGYDYWGQGTQVTVSS”, the “polyreactivity (PSR sort gate)” value was “high polyreactivity”.
The result for “QVQLVESGGGLVQAGGSLRLSCAASGSTFEAYAMGWYRQGPGKERELVAAINFTGGRTYYADSVKGRFTISRDNAKNTVYLQMNSLKPEDTAVYYCAARKWGVPYIDNDYWGQGTQVTVSS” reads “low polyreactivity”; that for “QVQLVESGGGLVQAGGSLRLSCAASGSTFEDYPLGWYRQAPGKERELVAAISHIGGSTYYADSVKGRFTISRDNAKNTVYLQMNSLKPEDTAVYYCAKGGFSSKFDYWGQGTQVTVSS”, “low polyreactivity”.
The result for “QVQLVESGGGLVQAGGSLRLSCAASGSTFEIYAMGWYRQAPGKERELVAAISSGGSTNYADSVKGRFTISRDNAKNTVYLQMNSLKPEDTAVYYCVYAIQFDYWGQGTQVTVSS” reads “low polyreactivity”.
For “QVQLVESGGGLVQAGGSLRLSCAASGSTFEQYAMGWYRQAPGTERELVASISTGGGRTYYADSVKGRFTISRDNAKYTVYLQMNSLKPEETAVFYCNKRYRGYKTGYSRFDYWVQGTQVTVSS” the value was “low polyreactivity”; for “QVQLVESGGGLVQAGGSLRLSCAASGSTFERYVMGWYRQAPGTERELVAAISRSGGTTYYADSVKGRFTISRDNAKNTVYLHMNSLKPEDTAVYYCAARYSVRGSQRPIYYYWGQGTQVTVSS”, “high polyreactivity”; for “QVQLVESGGGLVQAGGSLRLSCAASGSTFESNAMGWSRPAPGKEREFVAAITSGGSTDYADSVKGRFKISRDNAKNTVYLQMNSLKPEDTAVYYCAKGTFDLHYRKRYNYWGQGTQVTVSS”, “low polyreactivity”.
Turning to “QVQLVESGGGLVQAGGSLRLSCAASGSTFESNAMRWYRQAPGKERELVAAISRGGNTYYADSVKGLFTISRDNAKYTVYLQMHSLKPEDTAVYYCNVDRGNPVPPSEYWGQGTKVTVSS”, the “polyreactivity (PSR sort gate)” value is recorded as “low polyreactivity”.
The result for “QVQLVESGGGLVQAGGSLRLSCAASGSTFESYDMGWYRQAPGKERELVAAIDWSGGITYYADSVKGRFTISRDNAKNTVYLQMNSLKPEDTAVYYCNAGPYWWYYGEDYWGQGTQVTVSS” reads “low polyreactivity”; that for “QVQLVESGGGLVQAGGSLRLSCAASGSTFESYDMGWYRQAPGNERELVAAIDWSGGITYYADSVKGRFTISRDNAKNTVYLQMNSLKPEDTAVYYCNADWFVRYPKRVYWAEYDYWGQGTQVTVSS”, “low polyreactivity”; that for “QVQLVESGGGLVQAGGSLRLSCAASGSTFETNAMGWYRPAPGKERELVAAIRWSTGNTYYADSVKGRFTISRDNAKNTVYLQMNSLKPEDTEVYYCAAYKGKHYIEGYWGQGTQVTVSS”, “low polyreactivity”.
On to “QVQLVESGGGLVQAGGSLRLSCAASGSTFETYAMGWYRQAPGKERELVAVITSDGSTNYADSVKGRFTISRDNAKNTVYLQMNSLKPEDTAVYYCNADYGFYVPGYPIYWIYEYWGQGTQVTVSS”, for which the “polyreactivity (PSR sort gate)” value was “low polyreactivity”.
The result for “QVQLVESGGGLVQAGGSLRLSCAASGSTFEVNAMGWYRQAPGKERELVATITRSGGSTYYADSVKGRFTISRDNAKNTVYLQMNSLKPEDTAVYYCNAMWELKWGQGTQVTVSS” reads “low polyreactivity”; that for “QVQLVESGGGLVQAGGSLRLSCAASGSTFEVYTMGWYRQAAGKERELVADITWSGGNTYYADSVKGRFTISRDNAKNTVYLQMNSLKPEDTAVYYCAADYYHKTVYWYDYWGQGTQVTVSS”, “low polyreactivity”; that for “QVQLVESGGGLVQAGGSLRLSCAASGSTFEWYTMGWYRQAPGKERELVAAINGGGSTKYADSVKGRFTISRDNAKKTVYLQMNSLKPEDTAVYYCNLKYGMYWGQGTQVTVSS”, “high polyreactivity”.
